Measurements taken from patent publication CN115819596A.

Molecular target: 食蟹猴CEACAM6蛋白 (cynomolgus CEACAM6 protein) (cynomolgus monkey)
Test: ELISA, plate-coated cynomolgus CEACAM6 protein

- EC50: 0.463 nM
B1: UM05-L9 (antibody, human IgG1, kappa, V domains shown)
VH: QVQLQQSGPELVRPGVSVKISCKGSGYTFTDYAMHWVKQSHAKSLEWIGVISTYSGHTNYNQKFKGKAIMTVDKSSSTAYMDLARLTSEDSAIYYCVRGSTTAHYYTMDFWGQGTSVTVSS
VL: DIQMTQSPVSLSASVGETVTITCGASENIYGTLNWYQRKQGKSPQLLIYGATNLADGVSSRFSGSGSGRQYSLKISSLHPDDVATYYCQNVLSIPYTFGGGTKLEIKR
